# Target: Ago2 (human, UniProt Q9UKV8 1-859)
# Test: EMSA; Ago2 12.5, 25, 50, 100 mM (so in the source) with 40 mM miR-965; 1 mM MgCl2; shifted band increases with Ago2; 0.1 M KCl, 1 mM DTT, 1 mM MgCl2, 10 mM HEPES pH 7.6, 30 min at 37 C; 1% agarose gel, ethidium bromide then Coomassie stain
# Settings: protein: recombinant; single strand printed
# Sequence of Ago2 (Q9UKV8 whole entry): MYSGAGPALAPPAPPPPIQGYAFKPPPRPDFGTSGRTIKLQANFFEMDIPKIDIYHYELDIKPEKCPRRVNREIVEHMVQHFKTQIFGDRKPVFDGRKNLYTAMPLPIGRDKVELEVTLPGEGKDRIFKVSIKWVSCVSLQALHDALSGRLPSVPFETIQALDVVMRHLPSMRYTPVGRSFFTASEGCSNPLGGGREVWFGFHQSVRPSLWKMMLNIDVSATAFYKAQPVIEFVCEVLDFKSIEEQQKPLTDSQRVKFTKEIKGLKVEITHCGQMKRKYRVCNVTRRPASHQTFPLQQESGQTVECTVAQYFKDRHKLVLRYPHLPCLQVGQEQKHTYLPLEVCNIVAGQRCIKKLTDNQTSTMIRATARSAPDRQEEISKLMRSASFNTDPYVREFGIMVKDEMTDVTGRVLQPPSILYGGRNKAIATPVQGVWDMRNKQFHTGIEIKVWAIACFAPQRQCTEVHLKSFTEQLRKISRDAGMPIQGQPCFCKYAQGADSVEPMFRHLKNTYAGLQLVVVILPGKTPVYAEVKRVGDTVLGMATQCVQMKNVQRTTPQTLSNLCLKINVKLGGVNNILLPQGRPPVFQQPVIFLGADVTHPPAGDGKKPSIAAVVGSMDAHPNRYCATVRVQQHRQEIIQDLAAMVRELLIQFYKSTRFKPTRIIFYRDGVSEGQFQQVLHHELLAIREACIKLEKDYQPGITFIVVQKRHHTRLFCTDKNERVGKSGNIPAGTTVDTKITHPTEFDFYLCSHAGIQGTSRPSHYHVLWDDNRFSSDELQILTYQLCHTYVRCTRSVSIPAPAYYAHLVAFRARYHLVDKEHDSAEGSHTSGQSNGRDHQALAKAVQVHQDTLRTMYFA
binder,measurement,value
UAAGCGUAUGGCUUUUCCCCUC (ssRNA) [shrimp miR-965],binding result,binds

# Reference: paper PMC7318764, “Shrimp miR-965 induced the human melanoma stem-like cell apoptosis and inhibited their stemness by disrupting the MCL-1-ER stress-XBP1 feedback loop in a cross-species manner”
